In patent US20090281024A1 (RAPTOR PHARMACEUTICALS, published 2009):
Numbering of substitutions follows the chain as printed.

What was measured:
Assay in all cases: solid-phase binding assay: LRP2 CR89 coated on the plate, d3 ligand in solution, anti-RAP detection, absorbance
RAP d3 K256A, K270E = target: T1, RAP d3 K256A, K270E (human, UniProt P30533 235-353)
T1 construct: range 201-319 (mature RAP numbering); Forward mutant of m1; same construct; also called RAP K256A, K270E; not shown: N-terminal hexahistidine and S-peptide tags of pET30(+)a
T1 sequence (looked up): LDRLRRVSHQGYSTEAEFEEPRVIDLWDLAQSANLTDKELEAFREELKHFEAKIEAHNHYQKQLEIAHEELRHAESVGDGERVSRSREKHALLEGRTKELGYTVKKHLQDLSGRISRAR
Method: (§1) Solid phase binding assays—Purified, refolded CR protein (1 μg) was bound to Nunc Maxisorp™ 96-well plates in TBS pH 8 supplemented with 5 mM CaCl₂ (TBSC) overnight at 4° C. Wells were washed with TBSC and then blocked with TBSC containing 2% bovine serum albumin (BSA). RAP ligands were then incubated with the immobilized receptor at a range of concentrations for 2 hours in the above blocking buffer supplemented with 0.05% Tween-20 at room temperature. Control wells contained no added ligand. As an additional control, to determine whether the absence of calcium affected binding, 10 mM EGTA was included in the incubation medium for some samples. Wells were washed with TBSTC and bound ligands detected with polyclonal anti-RAP (BP41/42, 1:1,000, BioMarin). Excess primary antibody was removed and wells washed before incubation with the secondary antibody, HRP-conjugated goat anti rabbit IgG (Bio-Rad). After washing, TMB substrate solutions (Bio-Rad) were added to detect HRP. Color development was stopped with 1N HCl. Absorption at 450 nm was measured with a microplate spectrophotometer (Molecular Devices). Data were plotted and Kd values derived by non-linear regression with the assumption of single-site binding (GraphPad Prism).
(§2) Next, the binding of RAP d3 and MegaRAP1 d3 proteins to LRP1 CR3-5 and LRP2 CR89 was assessed. […] In all cases, 10 mM EGTA prevented binding of both RAP d3 and MegaRAP1 d3 to CR proteins. Since calcium was the only divalent metal ion present in the binding buffer, this observation is consistent with both RAP d3 and MegaRAP1 d3 binding to calcium-loaded CR pairs. […] Therefore, wild-type RAP d3 and MegaRAP1 d3 have inverted binding preferences for these two receptor fragments.

RAP d3 E251K, K270E = target: T2, RAP d3 E251K, K270E (human, UniProt P30533 235-353)
T2 construct: range 201-319 (mature RAP numbering); Forward mutant of m1; same construct; also called RAP E251K, K270E; not shown: N-terminal hexahistidine and S-peptide tags of pET30(+)a
T2 sequence (looked up): T1 sequence (looked up) with E51K, A56K
Method: as §1, §2

RAP d3 E217K = target: T3, RAP d3 E217K (human, UniProt P30533 235-353)
T3 construct: range 201-319 (mature RAP numbering); Forward mutant of m1; same construct; also called RAP E217K; not shown: N-terminal hexahistidine and S-peptide tags of pET30(+)a
T3 sequence (looked up): T1 sequence (looked up) with E17K, A56K, E70K
Method: as §1, §2

RAP d3 H249Y = target: T4, RAP d3 H249Y (human, UniProt P30533 235-353)
T4 construct: range 201-319 (mature RAP numbering); Forward mutant of m1; same construct; also called RAP H249Y; not shown: N-terminal hexahistidine and S-peptide tags of pET30(+)a
T4 sequence (looked up): T1 sequence (looked up) with H49Y, A56K, E70K
Method: as §1, §2

Measured: binding result

B1: LRP2 CR89 (receptor)
chain: not shown
notes: domain: CR89; Limits of the fragment are set only by the primers LRP2CR8F and LRP2CR9R; also called YVWR; L2 CR89; not shown: N-terminal hexahistidine and S-peptide tags of pET30(+)a
no binding (tested: 100 nM): RAP d3 K256A, K270E | RAP d3 E251K, K270E | RAP d3 E217K | RAP d3 H249Y
